Laboratory results as given in patent publication US20120148657A1, “Lipoxygenase and Its Use in Wound Healing” (priority 2009, published 2012).

Experiments:
epithelial Axolotl cells = assay: In vitro wound healing model: proliferation of epithelial cells from Axolotl skin biopsies (Celltiter blue); assay type: cell-based; conditions: for Epithelial cell proliferation: 1 μM MK-886 and 60 μM NDGA, respectively, plates incubated two days, Celltiter blue fluorescence
From the text: In order to investigate the influence of endogenous lipoxygenase activity on the migration and proliferation of epithelial Axolotl cells, skin biopsies with 2 mm diameter were taken form Axolotl tail skin. The skin biopsies were placed in cell culture dishes coated with bovine collagen I to allow for cell migration and proliferation in an in vitro wound healing model. The wound healing is observable by […] of epithelial cell growing from borders of the skin biopsies. The proliferation rates were determined by addition of Celltiter blue (Promega), an assay for detection of metabolic activity as an indirect measurement of cell proliferation based on Resazurin/Resofurin. Two known lipoxygenase inhibitors for the human lipoxygenase were used to examine the effect of lipoxygenase activity on cell proliferation (1 μM MK-886 and 60 μM NDGA, respectively). […] That is, the plates were incubated for two days to ensure proliferation of epidermal cells. Then, the number of metabolizing cells was determined by Resozuran-Resofurin exchange (Celltiter blue, Promega, Madison, USA). 2 μl Resozuran solution was added to each well for two hours and the fluorescence was read in a multiplate reader at 520 nm. The detected fluorescence was expressed in relative fluorescent units (RFU), means and standard deviation were calculated from triplicates with Microsoft Excel and tested for statistical significance using student's T-test. Experiments were repeated at three independent times to ensure reproducibility.

[1] = test system: transiently transfected cell populations; assay: Scratch assay of transiently transfected cell populations treated with lipoxygenase inhibitor; assay type: cell-based, human
Procedure: (§1) The coding sequence of AmbLOXe was subcloned in frame into the mammalian expression vector pTriEx-1 (Novagen). Plasmids were purified from transformed DH5α using the GenElute plasmid purification Kit (Sigma). Human osteosarcoma cells U2-OS or human spontaneously immortalized keratinocyte cells HaCaT (ATCC) were seeded into 100 mm cell culture dishes and grown over night to 40-50% confluence. Cells were transiently transfected with Fugene6 (Roche, Mannheim, Germany) following the instructions of the manufacturer. Briefly, 18 μl of the reagent were diluted with 600 μl serum-free medium and incubated at room temperature. After 5 min 6 μg of a 1:1 mixture of pTriEx-AmbLOXe and pEGFP-C3 (Clontech), which encodes Green Fluorescent Protein (GFP), were supplemented and incubated for additional 15 min. The transfection complex was added to the cell dishes in a dropwise manner. Cells were incubated for 24 hours before being analyzed for transfection efficiency by detection of GFP positive cells in a flow cytometer (FC-500, Beckman-Coulter, Fullerton, Calif., USA). Only cell populations were used in which about 25% GFP positive cells (U2-OS) or 12% GFP positive cells (HaCaT) could be detected. The cells were seeded into a six well plate until they reached confluence. The monolayer was then wounded with a disposable plastic pipet tip (10 μl-100 μl volume). The cells ere incubated in DMEM High Glucose (Biochrom, Berlin, Germany) supplemented with 10% FCS). The scratches were documented by microphotography and incubated for 16 hours. Then the scratches were again photographed and the remaining areas were measured using CellD (Olympus) software program. All experiments were carried out in quadruplicates and repeated at four independent times. Means and standard deviation were calculated and tested for statistical significance with ANOVA followed by Bonferroni's posthoc test.
In order to determine the influence of lipoxygenase inhibitor on the transiently transfected cell populations, cells transfected with empty vector (control) and scratched cell monolayers transfected with vectors containing human 12R LOX and AmbLOXe, respectively, received an overnight treatment with NHGA.

U2-OS cells = assay: Scratch assay for wound closure in transfected U2-OS cells; assay type: cell-based, human; conditions: for perimeter size of remaining scratch area (mean value): U2-OS cell populations transfected; for perimeter size of remaining scratch area (mean value) / wound closure in scratch assay (FIG. 2): after 16 hours incubation; for scratch width reduction: U2-OS cells transfected with expression plasmid, 16 hours incubation; for wound closure in scratch assay (FIG. 2): U2-OS cells transfected
From the text: To compare the effect of epidermal lipoxygenase of human and Axolotl origin, a human cell line, U2-OS was transfected with expression plasmids encoding for the two types of lipoxygenase (pAmbLOXe, phuLOX) in combination with a vector encoding for GFP (pEGFP-C3, Clontech) as a reporter for transfection efficiency. Controls were transfected with empty vector and pEGFP-C3.
as §1
A cDNA fragment coding for full-length AmbLOXe was cloned in frame into the mammalian expression vector pTriEx-1 and transfected together with an expression plasmid for EGFP into the U2-OS cell line to evaluate a possible influence of AmbLOXe expression in a mammalian model system. Only cell populations with a transfection efficiency of about 25% (U2-OS), respectively 12% (HaCaT) were used for all assays and seeded to confluent monolayers which subsequently were wounded with scratches.
The remaining scratch areas photographed after 16 hours incubation were used to determine the influence of AmbLOXe expression on mammalian cell migration. While no AmbLOXe expression could be observed in U2-OS cell populations transfected with an empty vector, and in U2-OS cell populations transfected with huLOX, AmbLOXe expression was detected in U2-OS cell populations transfected with AmbLOXe encoding plasmids. A perimeter size reduction to a mean value of 24806.26 μm in the cell populations transfected with an empty vector was found; while cell populations containing AmbLOXe expressing cells and cell populations containing cells expressing human 12R LOX reduced the photographed scratch area to mean values of 517.46 μm and 2086.86 μm, respectively.

[2] = test system: Mice having a full thickness skin wound; assay: Full thickness skin wound animal model (injection of transfected murine embryonic fibroblasts); assay type: in vivo; conditions: for wound closure (FIG. 5): determined after day 3 and day 7, transfected murine embryonic fibroblasts; for wound size: compared to human lipoxygenase, empty vector and untreated groups, C57/BR6 female mice
Procedure: That is, murine embryonic fibroblasts were seeded in cell culture dishes to 50% confluence and were transfected with expression plasmids encoding two different types of lipoxygenase (pAmbLOXe, phuLOX), an empty vector was used as control. After 24 hours, the cells were washed and trypsinated. Cells in an amount of 100,000 cells/ml in PBS were resuspended and 200 μl cell suspension was injected into area adjacent to a wound of a full thickness skin wound. Said full thickness skin wound was prepared in advance using mice (C57/BR6 female) where the back was shaved and the skin was disinfected. Thereafter, a full thickness skin wound was set using a 8 mm biopsy punch, resulting in a 50 mm^2 defect. A control group was prepared not treated with any cell suspension. After day 3 and day 7 a photo was taken from the wound and the reduction of wound size was measured and determined statistically.

[3] = test system: HaCaT keratinocyte cell line; assay: HaCaT monolayer scratch assay (cell migration); assay type: cell-based, human; conditions: HaCaT populations transfected; 16 hours incubation; compared to empty vector (p=0.0035) and huLOX (p=0.028) transfected populations
Procedure: The coding sequence of AmbLOXe was subcloned in frame into the mammalian expression vector pTriEx-1 (Novagen). Plasmids were purified from transformed DH5α using the GenElute plasmid purification Kit (Sigma). Human osteosarcoma cells U2-OS or human spontaneously immortalized keratinocyte cells HaCaT (ATCC) were seeded into 100 mm cell culture dishes and grown over night to 40-50% confluence. Cells were transiently transfected with Fugene6 (Roche, Mannheim, Germany) following the instructions of the manufacturer. Briefly, 18 μl of the reagent were diluted with 600 μl serum-free medium and incubated at room temperature. […] Cells were incubated for 24 hours before being analyzed for transfection efficiency by detection of GFP positive cells in a flow cytometer (FC-500, Beckman-Coulter, Fullerton, Calif., USA). Only cell populations were used in which about 25% GFP positive cells (U2-OS) or 12% GFP positive cells (HaCaT) could be detected. […] Then the scratches were again photographed and the remaining areas were measured using CellD (Olympus) software program. […] Means and standard deviation were calculated and tested for statistical significance with ANOVA followed by Bonferroni's posthoc test. […]
As described for the transfected U2-OS populations cellular migration was determined in HaCaT monolayer scratch assays.

Q: How did the Epithelial cell proliferation (epithelial Axolotl cells) turn out when `CC(C)c1ccc2c(c1)c(SC(C)(C)C)c(CC(C)(C)C(=O)O)n2Cc1ccc(Cl)cc1` [MK-886] was run?
A: significantly reduced

Q: What about the “effect on the Axolotl epithelial cells compared with NDGA” value (epithelial Axolotl cells; treatment of MK-886) of the same molecule?
A: equal effect

Q: For `CC(Cc1ccc(O)c(O)c1)C(C)Cc1ccc(O)c(O)c1` (stereo not drawn) [NDGA], which Epithelial cell proliferation (epithelial Axolotl cells) is on record?
A: significantly reduced

Q: Which “scratch area (mean value)” value ([1]; cell populations expressing AmbLOXe, overnight treatment with NHGA) does the source give for `CC(Cc1ccc(O)c(O)c1)C(C)Cc1ccc(O)c(O)c1` (stereo not drawn) [NHGA] here?
A: 4428.33 μm

Q: And the “migration behaviour compared to the solvent treated monolayers” value ([1]; cells expressing huLOX, overnight treatment with NHGA)?
A: no significant differences

Q: What about the “migration behaviour compared to the solvent treated monolayers” value ([1]; empty vector transfected cells, overnight treatment with NHGA) of the same molecule?
A: no significant differences

B1: huLOX: human epidermal lipoxygenase (human 12R LOX) expressed from plasmid phuLOX, comparator (protein, UniProt O75342 1-701, looked up)
Arachidonate 12-lipoxygenase, …: MATYKVRVATGTDLLSGTRDSISLTIVGTQGESHKQLLNHFGRDFATGAVGQYTVQCPQDLGELIIIRLHKERYAFFPKDPWYCNYVQICAPNGRIYHFPAYQWMDGYETLALREATGKTTADDSLPVLLEHRKEEIRAKQDFYHWRVFLPGLPSYVHIPSYRPPVRRHRNPNRPEWNGYIPGFPILINFKATKFLNLNLRYSFLKTASFFVRLGPMALAFKVRGLLDCKHSWKRLKDIRKIFPGKKSVVSEYVAEHWAEDTFFGYQYLNGVNPGLIRRCTRIPDKFPVTDDMVAPFLGEGTCLQAELEKGNIYLADYRIMEGIPTVELSGRKQHHCAPLCLLHFGPEGKMMPIAIQLSQTPGPDCPIFLPSDSEWDWLLAKTWVRYAEFYSHEAIAHLLETHLIAEAFCLALLRNLPMCHPLYKLLIPHTRYTVQINSIGRAVLLNEGGLSAKGMSLGVEGFAGVMVRALSELTYDSLYLPNDFVERGVQDLPGYYYRDDSLAVWNALEKYVTEIITYYYPSDAAVEGDPELQSWVQEIFKECLLGRESSGFPRCLRTVPELIRYVTIVIYTCSAKHAAVNTGQMEFTAWMPNFPASMRNPPIQTKGLTTLETFMDTLPDVKTTCITLLVLWTLSREPDDRRPLGHFPDIHFVEEAPRRSIEAFRQRLNQISHDIRQRNKCLPIPYYYLDPVLIENSISI
Q: Which “perimeter size of remaining scratch area (mean value)” value (U2-OS cells) does the source give for B1 here?
A: 2086.86 μm

Q: And the scratch width reduction (U2-OS cells)?
A: 56.75%

Q: What about the “wound closure in scratch assay (FIG. 2)” value (U2-OS cells) of the same molecule?
A: has not finished yet

Q: And the “wound closure (FIG. 5)” value [2]?
A: comparable with the control groups

B2: AmbLOXe: epidermal lipoxygenase from axolotl, Seq. ID. Nos. 1 and 2, EMBL Accession No. EU814616; tested by expression plasmid transfection (protein, listed as Ambystoma mexicanum)
chain: MVDEYRIKEDRDLGEILLIRLHKGPFSIFPEDNWYCMYVTVTSPGGVIYHFPCYRWIEGYPTVELAEGTAMLSSASNLHVTLKKQRESDLEQRRKVYRWKVYHPSFPKCIDVANNDELDKDAKYSITKTVHFVINKNVSNIAIKLKGFDGRQESWKSFDELKRVYWTLKTAKSEYVSHHWKEDAFFGYQYLNGPDPTLIKRCNKIPGNFPVTDEMVSYSLGASTSLEKELQKGNIYIVDHKMMEGLRANVLNGKQQYMAAPLCLFYRTPKDEVIPLAIQLNQTPGSETPLFLPSDNEWDWILAKIWVRSTSFAFHQAVSHFLRTHVFAEVFCLATLRQLPMAHPLYKLLVPHLRYTLQINVLARERLIGPGGAFDKNTAVGIAGIAELIKRDMETLKYSTLCLPENLQSREVESLPHFYYRDDGMKIWLAIESYVSGIVDYYYKSEESIQKDPELQAWVAEIFKEGFLERKSSGIPSSLETRVELIKYLTMVIFTCSAEHAAVNSGQFDFLSWMPNGPSTMRQPPPKTKGLATMESVLEALPEVGITTNIMTTVWTLSKEPGDMRPLGTYPDEHFTEEGPKQCIRAFQERLSEISREIEHRNASLPIKYNYMNPKVIENSVSI
Q: What does the source list for B2?
A: perimeter size of remaining scratch area (mean value) (U2-OS cells): 517.46 μm; scratch width reduction (U2-OS cells): 89.94%; wound closure in scratch assay (FIG. 2) (U2-OS cells): substantially completed; measured wound scratch (mean value) ([1]; solvent treated cell populations expressing AmbLOXe): 3388.99 μm; remaining scratch perimeter size [3]: significantly smaller; wound size ([2]; day 3): reduced dramatically; wound size ([2]; day 7): reduced dramatically; wound closure (FIG. 5) [2]: significant reduction
